{"source": "paper PMC7973640", "biological_target": "PaxA T1-CDD di-domain construct (thiolation domain followed by the C-terminal docking domain of PaxA) (Xenorhabdus cabanillasii JM26)", "experiment": "SEC + NMR titration; analytical gel filtration and NMR titration experiments; complex in slow exchange on the NMR time scale; NMR at 293 K, samples in 50 mM sodium phosphate pH 6.5, 100 mM NaCl, 2 mM β-mercaptoethanol, 5% D2O"}
{"substance": "PaxB N-terminal docking domain (amino acids 1-30 of PaxB followed by a non-native tyrosine) (domain or fragment)", "values": [{"measurement": "stoichiometry N", "value": 1}]}
